T1: GRIP1_2, Q9Y3R0
T1 sequence (Q9Y3R0 145-248, limits assumed, looked up): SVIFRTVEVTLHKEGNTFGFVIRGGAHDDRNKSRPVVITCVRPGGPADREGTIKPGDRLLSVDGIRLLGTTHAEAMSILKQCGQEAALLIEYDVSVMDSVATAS

T2: RAPGEF6, Q8TEU7
T2 sequence (Q8TEU7 525-625, limits assumed, looked up): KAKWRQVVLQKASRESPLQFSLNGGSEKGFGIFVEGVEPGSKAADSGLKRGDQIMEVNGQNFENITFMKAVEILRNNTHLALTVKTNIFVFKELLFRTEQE

T3: MPDZ_5, O75970
T3 sequence (O75970 695-796, limits assumed, looked up): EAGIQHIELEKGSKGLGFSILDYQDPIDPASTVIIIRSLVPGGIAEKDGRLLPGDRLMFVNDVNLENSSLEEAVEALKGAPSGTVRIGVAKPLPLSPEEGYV

T4: MPDZ_12, O75970
T4 sequence (O75970 1857-1958, limits assumed, looked up): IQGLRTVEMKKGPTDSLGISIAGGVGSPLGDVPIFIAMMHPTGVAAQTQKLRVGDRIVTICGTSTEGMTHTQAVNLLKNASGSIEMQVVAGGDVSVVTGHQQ

T5: PTPN13_1, Q12923
T5 sequence (Q12923 1088-1188, limits assumed, looked up): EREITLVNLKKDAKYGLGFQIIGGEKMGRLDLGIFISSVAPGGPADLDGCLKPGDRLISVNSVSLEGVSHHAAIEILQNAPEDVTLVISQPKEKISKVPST

T6: TIAM2, Q8IVF5
T6 sequence (Q8IVF5 885-986, limits assumed, looked up): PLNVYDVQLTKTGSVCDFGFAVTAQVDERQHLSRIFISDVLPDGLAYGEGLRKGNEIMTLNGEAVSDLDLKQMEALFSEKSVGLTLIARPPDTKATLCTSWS

T7: RHPN1, Q8TCX5
T7 sequence (Q8TCX5 508-602, limits assumed, looked up): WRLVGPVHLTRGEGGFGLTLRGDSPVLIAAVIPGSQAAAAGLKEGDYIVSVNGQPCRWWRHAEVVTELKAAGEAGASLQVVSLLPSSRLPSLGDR

T8: APBA1_1, Q02410
T8 sequence (Q02410 651-752, limits assumed, looked up): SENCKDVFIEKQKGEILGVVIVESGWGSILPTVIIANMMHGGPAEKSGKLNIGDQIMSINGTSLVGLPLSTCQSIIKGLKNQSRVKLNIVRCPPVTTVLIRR

T9: PDZD2_2, O15018
T9 sequence (O15018 329-429, limits assumed, looked up): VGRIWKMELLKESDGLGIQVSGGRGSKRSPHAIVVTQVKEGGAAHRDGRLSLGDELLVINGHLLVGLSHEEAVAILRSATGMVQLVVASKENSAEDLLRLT

T10: LNX2_3, Q8N448
T10 sequence (Q8N448 463-564, limits assumed, looked up): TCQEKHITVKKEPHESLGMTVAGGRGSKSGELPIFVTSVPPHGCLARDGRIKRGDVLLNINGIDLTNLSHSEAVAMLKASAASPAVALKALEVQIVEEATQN

B1: SLC26A3, P40879 (peptide)
chain: VYEVPVETKF
B2: HNRNPK, P61978;P61978-2 (peptide)
chain: VKQYADVEGF

Target: T1, GRIP1_2, Q9Y3R0
Assay: holdup assay
Parameters: key: below the threshold = too weak to quantify, mostly under pKd 3.1 to 4
Conditions: plain residues with an end cap or a label only (N-terminal biotin on a linker: ado-ado)

Row | pKd | Binder
1 | below the threshold | B1
2 | below the threshold | B2

Target: MAGI2_2, Q86UL8
Sequence (Q86UL8 410-522): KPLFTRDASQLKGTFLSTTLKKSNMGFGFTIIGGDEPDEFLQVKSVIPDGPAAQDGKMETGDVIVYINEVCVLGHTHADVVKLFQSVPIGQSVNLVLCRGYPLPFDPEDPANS
Assay: holdup assay
Parameters: key: below the threshold = too weak to quantify, mostly under pKd 3.1 to 4
Conditions: plain residues with an end cap or a label only (N-terminal biotin on a linker: ado-ado)

Row | pKd | Binder
3 | below the threshold | B1

Target: Inadl_1, Q8NI35
Sequence (Q8NI35 113-229): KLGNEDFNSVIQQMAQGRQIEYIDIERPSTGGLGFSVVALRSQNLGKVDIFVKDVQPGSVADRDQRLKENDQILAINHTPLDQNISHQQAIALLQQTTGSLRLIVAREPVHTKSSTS
Assay: holdup assay
Parameters: key: below the threshold = too weak to quantify, mostly under pKd 3.1 to 4
Conditions: plain residues with an end cap or a label only (N-terminal biotin on a linker: ado-ado)

Row | pKd | Binder
4 | below the threshold | B1
5 | below the threshold | B2

Target: T2, RAPGEF6, Q8TEU7
Assay: holdup assay
Parameters: key: below the threshold = too weak to quantify, mostly under pKd 3.1 to 4
Conditions: plain residues with an end cap or a label only (N-terminal biotin on a linker: ado-ado)

Row | pKd | Binder
6 | below the threshold | B1
7 | below the threshold | B2

Target: GRIP2_7, Q9C0E4
Sequence (Q9C0E4 934-1023): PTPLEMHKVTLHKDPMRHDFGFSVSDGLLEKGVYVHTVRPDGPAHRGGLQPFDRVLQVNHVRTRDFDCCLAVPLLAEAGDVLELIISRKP
Assay: holdup assay
Parameters: key: below the threshold = too weak to quantify, mostly under pKd 3.1 to 4
Conditions: plain residues with an end cap or a label only (N-terminal biotin on a linker: ado-ado)

Row | pKd | Binder
8 | below the threshold | B1
9 | below the threshold | B2

Target: T3, MPDZ_5, O75970
Assay: holdup assay
Parameters: key: below the threshold = too weak to quantify, mostly under pKd 3.1 to 4
Conditions: plain residues with an end cap or a label only (N-terminal biotin on a linker: ado-ado)

Row | pKd | Binder
10 | below the threshold | B1
11 | below the threshold | B2

Target: DLG1_1, Q12959
Assay: holdup assay
Parameters: key: below the threshold = too weak to quantify, mostly under pKd 3.1 to 4
Conditions: plain residues with an end cap or a label only (N-terminal biotin on a linker: ado-ado)

Row | pKd | Binder
12 | below the threshold | B1
13 | below the threshold | B2

Target: T4, MPDZ_12, O75970
Assay: holdup assay
Parameters: key: below the threshold = too weak to quantify, mostly under pKd 3.1 to 4
Conditions: plain residues with an end cap or a label only (N-terminal biotin on a linker: ado-ado)

Row | pKd | Binder
14 | below the threshold | B1
15 | below the threshold | B2

Target: DLG4_1, P78352
Sequence (P78352 62-152): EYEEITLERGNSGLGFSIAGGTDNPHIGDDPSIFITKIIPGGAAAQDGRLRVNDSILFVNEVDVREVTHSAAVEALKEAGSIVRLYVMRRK
Assay: holdup assay
Parameters: key: below the threshold = too weak to quantify, mostly under pKd 3.1 to 4
Conditions: plain residues with an end cap or a label only (N-terminal biotin on a linker: ado-ado)

Row | pKd | Binder
16 | below the threshold | B1
17 | below the threshold | B2

Target: NOS1, P29475
Sequence (P29475 9-101): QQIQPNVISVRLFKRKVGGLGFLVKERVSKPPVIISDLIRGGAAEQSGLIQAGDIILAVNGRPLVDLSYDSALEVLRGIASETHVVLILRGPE
Assay: holdup assay
Parameters: key: below the threshold = too weak to quantify, mostly under pKd 3.1 to 4
Conditions: plain residues with an end cap or a label only (N-terminal biotin on a linker: ado-ado)

Row | pKd | Binder
18 | 3.72 | B1
19 | below the threshold | B2

Target: LAP2, Q96RT1
Sequence (Q96RT1 other isoform, or with tags, fused parts or gaps): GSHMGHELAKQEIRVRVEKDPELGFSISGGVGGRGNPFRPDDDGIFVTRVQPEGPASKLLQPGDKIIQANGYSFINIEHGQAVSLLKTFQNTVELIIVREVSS
Assay: holdup assay
Parameters: key: below the threshold = too weak to quantify, mostly under pKd 3.1 to 4
Conditions: plain residues with an end cap or a label only (N-terminal biotin on a linker: ado-ado)

Row | pKd | Binder
20 | below the threshold | B1
21 | below the threshold | B2

Target: T5, PTPN13_1, Q12923
Assay: holdup assay
Parameters: key: below the threshold = too weak to quantify, mostly under pKd 3.1 to 4
Conditions: plain residues with an end cap or a label only (N-terminal biotin on a linker: ado-ado)

Row | pKd | Binder
22 | below the threshold | B1
23 | below the threshold | B2

Target: DLG4_3, P78352
Sequence (P78352 306-403): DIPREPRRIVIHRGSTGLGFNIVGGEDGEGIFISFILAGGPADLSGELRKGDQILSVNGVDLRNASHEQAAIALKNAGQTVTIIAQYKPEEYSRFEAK
Assay: holdup assay
Parameters: key: below the threshold = too weak to quantify, mostly under pKd 3.1 to 4
Conditions: plain residues with an end cap or a label only (N-terminal biotin on a linker: ado-ado)

Row | pKd | Binder
24 | below the threshold | B1
25 | below the threshold | B2

Target: T6, TIAM2, Q8IVF5
Assay: holdup assay
Parameters: key: below the threshold = too weak to quantify, mostly under pKd 3.1 to 4
Conditions: plain residues with an end cap or a label only (N-terminal biotin on a linker: ado-ado)

Row | pKd | Binder
26 | 3.98 | B1
27 | 3.94 | B2

Target: T7, RHPN1, Q8TCX5
Assay: holdup assay
Parameters: key: below the threshold = too weak to quantify, mostly under pKd 3.1 to 4
Conditions: plain residues with an end cap or a label only (N-terminal biotin on a linker: ado-ado)

Row | pKd | Binder
28 | 4.03 | B1
29 | below the threshold | B2

Target: FRMPD2_1, Q68DX3
Sequence (Q68DX3 770-861): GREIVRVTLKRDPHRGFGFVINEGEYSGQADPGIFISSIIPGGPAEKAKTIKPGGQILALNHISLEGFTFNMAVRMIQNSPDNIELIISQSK
Assay: holdup assay
Parameters: key: below the threshold = too weak to quantify, mostly under pKd 3.1 to 4
Conditions: plain residues with an end cap or a label only (N-terminal biotin on a linker: ado-ado)

Row | pKd | Binder
30 | below the threshold | B1
31 | below the threshold | B2

Target: T8, APBA1_1, Q02410
Assay: holdup assay
Parameters: key: below the threshold = too weak to quantify, mostly under pKd 3.1 to 4
Conditions: plain residues with an end cap or a label only (N-terminal biotin on a linker: ado-ado)

Row | pKd | Binder
32 | below the threshold | B1
33 | below the threshold | B2

Target: NHERF4_1, Q86UT5-2
Sequence (Q86UT5 other isoform, or with tags, fused parts or gaps): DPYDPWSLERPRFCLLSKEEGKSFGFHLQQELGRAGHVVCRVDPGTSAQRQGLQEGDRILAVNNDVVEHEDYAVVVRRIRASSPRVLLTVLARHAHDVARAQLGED
Assay: holdup assay
Parameters: key: below the threshold = too weak to quantify, mostly under pKd 3.1 to 4
Conditions: plain residues with an end cap or a label only (N-terminal biotin on a linker: ado-ado)

Row | pKd | Binder
34 | 3.67 | B1
35 | 3.99 | B2

Target: FRMPD3, Q5JV73
Sequence (Q5JV73 12-100): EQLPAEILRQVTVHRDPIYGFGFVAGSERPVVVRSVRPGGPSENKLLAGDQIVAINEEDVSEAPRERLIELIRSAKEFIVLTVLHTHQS
Assay: holdup assay
Parameters: key: below the threshold = too weak to quantify, mostly under pKd 3.1 to 4
Conditions: plain residues with an end cap or a label only (N-terminal biotin on a linker: ado-ado)

Row | pKd | Binder
36 | below the threshold | B1
37 | below the threshold | B2

Target: MAST2, Q6P0Q8
Sequence (Q6P0Q8 1099-1202): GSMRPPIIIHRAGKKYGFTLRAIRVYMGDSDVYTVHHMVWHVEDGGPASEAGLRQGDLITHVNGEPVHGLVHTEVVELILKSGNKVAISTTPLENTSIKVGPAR
Assay: holdup assay
Parameters: key: below the threshold = too weak to quantify, mostly under pKd 3.1 to 4
Conditions: plain residues with an end cap or a label only (N-terminal biotin on a linker: ado-ado)

Row | pKd | Binder
38 | 5.48 | B1

Target: SNX27, Q96L92
Assay: holdup assay
Parameters: key: below the threshold = too weak to quantify, mostly under pKd 3.1 to 4
Conditions: plain residues with an end cap or a label only (N-terminal biotin on a linker: ado-ado)

Row | pKd | Binder
39 | 5.33 | B1
40 | below the threshold | B2

Target: T9, PDZD2_2, O15018
Assay: holdup assay
Parameters: key: below the threshold = too weak to quantify, mostly under pKd 3.1 to 4
Conditions: plain residues with an end cap or a label only (N-terminal biotin on a linker: ado-ado)

Row | pKd | Binder
41 | 3.72 | B1
42 | below the threshold | B2

Target: DLG2_3, Q15700
Assay: holdup assay
Parameters: key: below the threshold = too weak to quantify, mostly under pKd 3.1 to 4
Conditions: plain residues with an end cap or a label only (N-terminal biotin on a linker: ado-ado)

Row | pKd | Binder
43 | 3.74 | B1

Target: T10, LNX2_3, Q8N448
Assay: holdup assay
Parameters: key: below the threshold = too weak to quantify, mostly under pKd 3.1 to 4
Conditions: plain residues with an end cap or a label only (N-terminal biotin on a linker: ado-ado)

Row | pKd | Binder
44 | below the threshold | B1
45 | below the threshold | B2

Target: GRIP2_3, Q9C0E4
Sequence (Q9C0E4 238-339): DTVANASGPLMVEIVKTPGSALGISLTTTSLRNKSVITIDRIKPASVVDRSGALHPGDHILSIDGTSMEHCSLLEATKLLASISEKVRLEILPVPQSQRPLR
Assay: holdup assay
Parameters: key: below the threshold = too weak to quantify, mostly under pKd 3.1 to 4
Conditions: plain residues with an end cap or a label only (N-terminal biotin on a linker: ado-ado)

Row | pKd | Binder
46 | below the threshold | B1
47 | below the threshold | B2

Target: HTRA2, O43464
Sequence (O43464 355-458): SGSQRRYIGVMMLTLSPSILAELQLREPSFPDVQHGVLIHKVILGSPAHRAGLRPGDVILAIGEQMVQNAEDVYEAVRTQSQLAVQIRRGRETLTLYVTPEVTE
Assay: holdup assay
Parameters: key: below the threshold = too weak to quantify, mostly under pKd 3.1 to 4
Conditions: plain residues with an end cap or a label only (N-terminal biotin on a linker: ado-ado)

Row | pKd | Binder
48 | below the threshold | B1
49 | below the threshold | B2

Target: LNX1_2, Q8TBB1
Sequence (Q8TBB1 371-470): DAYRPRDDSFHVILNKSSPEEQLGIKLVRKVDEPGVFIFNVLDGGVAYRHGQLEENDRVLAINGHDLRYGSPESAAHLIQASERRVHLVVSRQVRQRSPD
Assay: holdup assay
Parameters: key: below the threshold = too weak to quantify, mostly under pKd 3.1 to 4
Conditions: plain residues with an end cap or a label only (N-terminal biotin on a linker: ado-ado)

Row | pKd | Binder
50 | below the threshold | B1
51 | below the threshold | B2

Target: PARD3_3, Q8TEW0
Sequence (Q8TEW0 582-685): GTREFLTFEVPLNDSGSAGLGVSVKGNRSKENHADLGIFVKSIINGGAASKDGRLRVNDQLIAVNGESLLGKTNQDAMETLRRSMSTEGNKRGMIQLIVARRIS
Assay: holdup assay
Parameters: key: below the threshold = too weak to quantify, mostly under pKd 3.1 to 4
Conditions: plain residues with an end cap or a label only (N-terminal biotin on a linker: ado-ado)

Row | pKd | Binder
52 | below the threshold | B1
53 | below the threshold | B2

Source: paper PMC9482650, “Quantitative fragmentomics allow affinity mapping of interactomes” (Nature Communications, 2022)
